These are literature values, as cited in paper PMC7761212.

The target in this data set is rice hemoglobin (Oryza sativa) (UniProt O04986).

rice hemoglobin, sequence (O04986 whole entry): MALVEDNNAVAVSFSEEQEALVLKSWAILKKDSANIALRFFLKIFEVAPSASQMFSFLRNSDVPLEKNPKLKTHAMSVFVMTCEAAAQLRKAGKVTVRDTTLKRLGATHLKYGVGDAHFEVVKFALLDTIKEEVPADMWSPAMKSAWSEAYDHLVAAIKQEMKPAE

Usually Kd stands for the constant that tells how readily two partners part at equilibrium. Regarding rice hemoglobin (from UniProt O04986), the Kd was 80 µM.
